Laboratory results as given in patent publication US20120065123A1 (published 2012).

B1: BP2 on dsDNA (peptide)
peptide: EGEWTEGKLSLRGSC
modifications: chain 1 pos 15: Cys thiol joined via SMCC maleimide to an amine-modified cytosine of the double-stranded DNA linker, which the letters cannot carry
notes: also called BP2 alone conjugated to DNA linker
B2: BP1 on dsDNA (peptide)
peptide: GTEKGTSGWLKTGSC
modifications: chain 1 pos 15: Cys thiol joined via SMCC maleimide to an amine-modified cytosine of the double-stranded DNA linker, which the letters cannot carry
notes: also called BP1 alone conjugated to DNA linker
B3: BP2 variant EGEITEGKKSKIGSC (peptide)
peptide: EGEITEGKKSKIGSC
notes: Made in place on a glass slide by light-directed synthesis

The binders below were run against T1, pooled human transferrin (Sigma), biotinylated (human, UniProt P02787 20-698, biotinylated at amines with NHS-LC-LC-Biotin) (assay: SPR (Biacore A-100), biotinylated transferrin captured on Neutravidin, unpurified peptide injected for 60 s [b]).
T1 construct: Captured on Neutravidin on a CM5 chip (Biacore A-100)
T1 sequence (P02787 20-698 limits assumed): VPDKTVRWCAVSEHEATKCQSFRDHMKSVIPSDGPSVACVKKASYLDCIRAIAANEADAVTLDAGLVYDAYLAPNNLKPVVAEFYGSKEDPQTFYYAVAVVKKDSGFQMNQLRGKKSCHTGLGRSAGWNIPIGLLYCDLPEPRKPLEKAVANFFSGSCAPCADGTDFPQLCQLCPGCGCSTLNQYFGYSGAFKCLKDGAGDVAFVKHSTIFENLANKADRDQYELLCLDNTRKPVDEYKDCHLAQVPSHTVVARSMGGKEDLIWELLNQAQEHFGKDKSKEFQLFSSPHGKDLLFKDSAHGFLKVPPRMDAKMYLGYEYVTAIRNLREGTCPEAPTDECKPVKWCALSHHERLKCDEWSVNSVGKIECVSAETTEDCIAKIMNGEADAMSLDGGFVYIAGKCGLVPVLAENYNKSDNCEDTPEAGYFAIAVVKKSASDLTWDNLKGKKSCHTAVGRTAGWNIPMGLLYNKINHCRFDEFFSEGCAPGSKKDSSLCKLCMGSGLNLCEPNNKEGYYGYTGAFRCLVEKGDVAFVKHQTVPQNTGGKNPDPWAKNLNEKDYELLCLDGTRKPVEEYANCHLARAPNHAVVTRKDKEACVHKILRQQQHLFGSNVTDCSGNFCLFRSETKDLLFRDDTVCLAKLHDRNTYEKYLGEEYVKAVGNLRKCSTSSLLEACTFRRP

NIRMLLRFTVFPAQKLIGSC (Unpurified library peptide) [transferrin binding peptide of FIG. 60B]: binds.

What follows are binders tested against T1, pooled human transferrin (Sigma), … (assay: SPR (Biacore A-100), biotinylated transferrin captured on Neutravidin, unpurified peptide injected for 60 s [f]).

KMRTITYYHLQAILKQRGSC (Unpurified library peptide) [transferrin binding peptide of FIG. 60F]: binds.

Each binder was assayed against T1, pooled human transferrin (Sigma), … (assay: SPR (Biacore A-100), biotinylated transferrin captured on Neutravidin, unpurified peptide injected for 60 s [c]).
From the text: (§1) A Biacore A-100 Surface Plasmon Resonance (SPR) system was used to measure the binding response of each peptide to several different target proteins immobilized on a gold surface. The A-100 has four different flow cells and within each flow cell are five addressable spots. Therefore four different proteins and a negative control reference can be used per flow cell. Depending on the purpose of the assay, up to 16 different target proteins can be immobilized on a single SPR chip. The instrument is equipped to evaluate up to 10 384-well plates unattended and can process approximately four 384-well plates per day. Sensorgrams are collected from each immobilized protein, so a binding profile for each analyte versus each of the protein targets is generated for each injection. Target proteins were immobilized using a biotin capture approach in which a CM5 chip was activated using standard amine coupling chemistry and Neutravidin was covalently coupled to the chip. Each biotinylated protein was injected over a single spot and the amount of protein captured was measured.

WMDDIDAPQDEWWVFHHGSC (Unpurified library peptide) [transferrin binding peptide of FIG. 60C]: binds.

The binders below were run against T2, Gal80 (UniProt P04387 1-435, limits assumed) (assay: SPR with gal80 immobilised on the chip; Kd from on and off rates).
T2 construct: Cy3/Cy5 or otherwise fluorescently labelled on arrays; immobilised in SPR and ELISA
T2 sequence (looked up): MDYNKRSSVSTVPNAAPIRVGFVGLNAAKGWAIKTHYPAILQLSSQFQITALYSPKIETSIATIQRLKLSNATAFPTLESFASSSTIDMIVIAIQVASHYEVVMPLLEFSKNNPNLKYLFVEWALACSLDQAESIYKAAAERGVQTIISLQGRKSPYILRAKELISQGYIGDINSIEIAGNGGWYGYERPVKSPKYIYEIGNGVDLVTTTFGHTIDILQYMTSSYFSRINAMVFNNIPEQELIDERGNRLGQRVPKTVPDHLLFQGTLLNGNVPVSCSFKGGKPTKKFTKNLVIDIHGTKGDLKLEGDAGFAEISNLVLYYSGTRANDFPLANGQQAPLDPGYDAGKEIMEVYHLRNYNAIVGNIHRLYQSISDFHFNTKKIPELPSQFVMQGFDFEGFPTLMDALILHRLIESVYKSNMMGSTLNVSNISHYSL

Compared with B1, B2 is 2-fold lower in Kd: 982 nM for the first, 482 nM for the second.

These binders were tested against T1, pooled human transferrin (Sigma), … (assay: SPR (Biacore A-100), biotinylated transferrin captured on Neutravidin, unpurified peptide injected for 60 s [i]).
From the text: as §1

AMMRMDMAGLNKIVFHQGSC (Unpurified library peptide) [transferrin binding peptide of FIG. 60I]: binds.

Each binder was assayed against T1, pooled human transferrin (Sigma), … (assay: SPR (Biacore A-100), biotinylated transferrin captured on Neutravidin, unpurified peptide injected for 60 s [l]).
From the text: as §1

TEDNDYMVVSMVVTMEPGSC (Unpurified library peptide) [transferrin binding peptide of FIG. 60L]: binds.

What follows are binders tested against T2, Gal80 (assay: light-directed peptide array, 25 pM labelled GAL80 with 1 mg/mL E. coli lysate; against template BP2).
Description: Variant peptides in the array were designed to contain both invariable and variable positions. Invariable positions were coupled using standard Fmoc solid-phase synthesis protocols. Briefly, the Fmoc protecting group was removed with 20% piperidine in DMF for 20 minutes. After deprotection, the next Fmoc amino acid was coupled to the N-terminus of the peptide chain (0.1 M Fmoc amino acid, 0.1 M HATU, 0.4 M DIPEA in DMF). Amino acid coupling times were typically 60 minutes. Variable positions in the peptide were coupled using light-directed chemistry. First, the N-terminal Fmoc group was removed from all peptides using 20% piperidine in DMF and the photolabile protecting group MeNPOC—Cl was coupled to the liberated N-terminal amines for 30 minutes. The array was then immersed in photolysis solution containing 30% β-mercaptoethanol, 7% DIPEA in acetonitrile. A photolithographic mask was projected on the substrate using a Digital Mirror Device, to selectively remove the MeNPOC protecting group in the illuminated regions. The substituted FMOC amino acid was added and allowed to couple to the selectively deprotected regions. After coupling, photodeprotection was repeated for different regions on the array and the next amino acid was coupled. This photodeprotection/coupling cycle was repeated for all substituted amino acids at a particular position in the peptide. After all peptides on the array are grown to the desired length a final side-chain deprotection is done using 95% TFA, 2.5% TIPS, 2.5% H₂O for 1 hour.
The chemically diverse set of 10 amino acids {I, D, W, L, E, G, T, S, K, R} were selected as the amino acids to substitute into the four variable positions for a total of 10,000 unique variant peptides. Three replicates were included in the array to produce a total of 30,000 array features. The variant array (including the lead peptide) was synthesized using light-directed synthesis described above.

Going from EGEITEGKKSKLGSC [BP2 variant EGEITEGKKSKLGSC] to EGEWTEGKKSKLGSC [BP2 variant EGEWTEGKKSKLGSC], the “Fold Enhancement” value falls from 11.1 fold to 10.7 fold.

First: EGEITEGKKSKTGSC [BP2 variant EGEITEGKKSKTGSC]
Second: EGEDTEGKKSKLGSC [BP2 variant EGEDTEGKKSKLGSC]
The “Fold Enhancement” value of the first is higher: 10.6 fold for the first, 10.4 fold for the second.

Compared with EGEITEGKKSKGGSC [BP2 variant EGEITEGKKSKGGSC], EGEITEGKKSKEGSC [BP2 variant EGEITEGKKSKEGSC] is higher in “Fold Enhancement” value: 10.8 fold for the first, 10.9 fold for the second.

EGEDTEGKKSKRGSC [BP2 variant EGEDTEGKKSKRGSC] and EGEWTEGKKSKIGSC [BP2 variant EGEWTEGKKSKIGSC] are the same in “Fold Enhancement” value: 10.4 fold for the first, 10.4 fold for the second.

First: EGEKTEGKKSKLGSC [BP2 variant EGEKTEGKKSKLGSC]
Second: EGEWTEGKKSKTGSC [BP2 variant EGEWTEGKKSKTGSC]
The “Fold Enhancement” value of the first is lower: 9.81 fold for the first, 10.5 fold for the second.

Compared with EGEKTEGKKSKEGSC [BP2 variant EGEKTEGKKSKEGSC], EGEDTEGKKSKEGSC [BP2 variant EGEDTEGKKSKEGSC] is higher in “Fold Enhancement” value: 9.7 fold for the first, 10.1 fold for the second.

Going from EGEWTEGKKSKEGSC [BP2 variant EGEWTEGKKSKEGSC] to EGEDTEGKKSKIGSC [BP2 variant EGEDTEGKKSKIGSC], the “Fold Enhancement” value falls from 10.7 fold to 10.4 fold.

First: EGEDTEGKKSKTGSC [BP2 variant EGEDTEGKKSKTGSC]
Second: EGEITEGKKSKRGSC [BP2 variant EGEITEGKKSKRGSC]
The “Fold Enhancement” value of the first is lower: 10.2 fold for the first, 10.5 fold for the second.

Going from EGEKTEGKKSKGGSC [BP2 variant EGEKTEGKKSKGGSC] to EGEWTEGKKSKRGSC [BP2 variant EGEWTEGKKSKRGSC], the “Fold Enhancement” value rises from 9.24 fold to 11 fold.

Compared with EGEITEGKKSKSGSC [BP2 variant EGEITEGKKSKSGSC], EGEKTEGKKSKTGSC [BP2 variant EGEKTEGKKSKTGSC] is lower in “Fold Enhancement” value: 9.91 fold for the first, 8.5 fold for the second.

First: EGEWTEGKKSKGGSC [BP2 variant EGEWTEGKKSKGGSC]
Second: B3
The “Fold Enhancement” value of the first is lower: 11.1 fold for the first, 11.3 fold for the second.

First: EGEDTEGKKSKGGSC [BP2 variant EGEDTEGKKSKGGSC]
Second: EGEITEGKGSKKGSC [BP2 variant EGEITEGKGSKKGSC]
The “Fold Enhancement” value of the first is higher: 10.8 fold for the first, 9.87 fold for the second.

For EGEITEGKLSKKGSC [BP2 variant EGEITEGKLSKKGSC], the “Fold Enhancement” value was 9.72 fold.

The binders below were run against T1, pooled human transferrin (Sigma), … (assay: SPR (Biacore A-100), biotinylated transferrin captured on Neutravidin, unpurified peptide injected for 60 s [g]).

DNSRRSAKQRIFMHVDLGSC (Unpurified library peptide) [transferrin binding peptide of FIG. 60G]: binds.

Each binder was assayed against T1, pooled human transferrin (Sigma), … (assay: SPR (Biacore A-100), biotinylated transferrin captured on Neutravidin, unpurified peptide injected for 60 s [d]).

DFLWSKSGILSHASWNHGSC (Unpurified library peptide) [transferrin binding peptide of FIG. 60D]: binds.

What follows are binders tested against T1, pooled human transferrin (Sigma), … (assay: SPR (Biacore A-100), biotinylated transferrin captured on Neutravidin, unpurified peptide injected for 60 s [j]).

DRDTPWETTNKTEEGIEGSC (Unpurified library peptide) [transferrin binding peptide of FIG. 60J]: binds.

The binders below were run against T1, pooled human transferrin (Sigma), … (assay: SPR (Biacore A-100), biotinylated transferrin captured on Neutravidin, unpurified peptide injected for 60 s [k]).

QENDQQSFGLGGMMGQAGSC (Unpurified library peptide) [transferrin binding peptide of FIG. 60K]: binds.
